Laboratory results from article PMC8842248.

Columns and labels:
[1] = biological target: HRAS peptide, …(OMe)-farnesyl; assay: ITC; PDE6D (100-300 μM) in the syringe, peptides (10-30 μM) in the cell; 25 °C; 10 mM Tris pH 7.5, 150 mM NaCl, 2 mM DTT, 5% DMSO
[2] = biological target: KRAS WT peptide, …(OMe)-farnesyl; assay: as above
PDE6D (Homo sapiens) = PDE6D (Homo sapiens) (UniProt O43924); details: cited from earlier work

Chain of INPP5E (Q9NRR6 1-641): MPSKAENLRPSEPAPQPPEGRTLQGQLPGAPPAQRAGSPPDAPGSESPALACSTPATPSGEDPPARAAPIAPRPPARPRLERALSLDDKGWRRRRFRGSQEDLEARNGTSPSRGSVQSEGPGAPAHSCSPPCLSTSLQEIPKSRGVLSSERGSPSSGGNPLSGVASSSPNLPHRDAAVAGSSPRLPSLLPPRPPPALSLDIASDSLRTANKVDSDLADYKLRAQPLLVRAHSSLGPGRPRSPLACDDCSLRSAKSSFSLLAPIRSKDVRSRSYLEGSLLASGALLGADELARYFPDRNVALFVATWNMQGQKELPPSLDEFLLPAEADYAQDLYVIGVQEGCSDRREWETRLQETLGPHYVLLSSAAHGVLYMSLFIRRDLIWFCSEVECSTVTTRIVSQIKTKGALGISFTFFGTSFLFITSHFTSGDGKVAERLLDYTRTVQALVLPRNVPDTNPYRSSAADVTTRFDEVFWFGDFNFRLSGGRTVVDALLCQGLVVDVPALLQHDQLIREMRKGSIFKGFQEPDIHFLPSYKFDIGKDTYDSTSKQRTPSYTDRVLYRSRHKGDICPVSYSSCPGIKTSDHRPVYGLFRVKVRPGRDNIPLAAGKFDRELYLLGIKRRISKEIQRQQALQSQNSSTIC

Row | Kd [1] | Kd [2] | Substance | Kd (PDE6D (Homo sapiens))
1 | 2.7 µM | 1.3 µM | PDE6D (phosphodiesterase 6 delta), wild type, polyhistidine tag removed (from UniProt O43924 1-150) (natural protein) | 
2 |  |  | INPP5E (from UniProt Q9NRR6) | 0.01 µM
